Experimental data reported in publication PMC11189427 (Scientific Reports, 2024).
Where “and” joins values, the source holds several entries; their conditions need not be identical. Equal values may be shown once.

Target: the molecule itself
Assay: cryo-EM structure

B1: Hendra henipavirus nucleoprotein (natural protein)
chain: MSDIFDEAASFRSYQSKLGRDGRASAATATLTTKIRIFVPATNSPELRWELTLFALDVIRSPSAAESMKIGAAFTLISMYSERPGALIRSLLNDPDIEAVIIDVGSMLNGIPVMERRGDKAQEEMEGLMRILKTARESSKGKTPFVDSRAYGLRITDMSTLVSAVITIEAQIWILIAKAVTAPDTAEESETRRWAKYVQQKRVNPFFALTQQWLTEMRNLLSQSLSVRKFMVEILMEVKKGGSAKGRAVEIISDIGNYVEETGMAGFFATIRFGLETRYPALALNEFQSDLNTIKGLMLLYREIGPRAPYMVLLEESIQTKFAPGGYPLLWSFAMGVATTIDRSMGALNINRGYLEPMYFRLGQKSARHHAGGIDQNMANKLGLNSDQVAELAAAVQETSVGRQDNNMQAREAKFAAGGVLVGGGEQDIDEEEEPIEHSGRQSVTFKREMSMSSLADSVPSSSVSTSGGTRLTNSLLNLRSRLAAKAIKESTAQSSSERNPPNNRPQADSGRKDDQEPKPAQNDLDFVRADV
notes: copies: 28
  stoichiometry N: 14 protomers per ring and 28 protomers per double-ring assembly
